This note sets out measurements from patent publication US20250361280A1 (Protagonist Therapeutics, Inc., priority 2022, published 2025).

In assay [1] the target is T1, human ferroportin (Homo sapiens, UniProt Q9NP59).
T1 sequence (Q9NP59 1-571): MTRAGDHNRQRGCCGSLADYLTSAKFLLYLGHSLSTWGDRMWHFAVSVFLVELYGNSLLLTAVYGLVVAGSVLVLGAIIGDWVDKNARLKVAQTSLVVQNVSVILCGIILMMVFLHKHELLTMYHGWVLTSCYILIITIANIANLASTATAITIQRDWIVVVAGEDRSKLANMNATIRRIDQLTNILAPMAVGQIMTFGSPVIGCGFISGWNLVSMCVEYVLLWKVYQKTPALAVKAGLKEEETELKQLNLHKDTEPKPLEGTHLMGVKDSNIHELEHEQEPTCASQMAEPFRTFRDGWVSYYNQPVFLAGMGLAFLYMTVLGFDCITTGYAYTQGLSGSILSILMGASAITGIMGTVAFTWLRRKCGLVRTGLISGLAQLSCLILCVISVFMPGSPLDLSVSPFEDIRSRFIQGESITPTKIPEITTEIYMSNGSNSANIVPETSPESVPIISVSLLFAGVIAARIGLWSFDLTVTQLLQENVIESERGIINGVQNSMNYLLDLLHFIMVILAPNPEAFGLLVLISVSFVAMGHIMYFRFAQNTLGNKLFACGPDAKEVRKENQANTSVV
The assay is described as follows: FPN internalization assay (FPN activity assay), loss of ferroportin-GFP fluorescence. The assay is classed as cell-based. The conditions noted are these: Table 5 reference compounds; value in μM; read-out: Potency EC50.
Protocol: Peptide analogues were tested in vitro for induction of internalization of the human ferroportin protein. Following internalization, the ferroporin protein is degraded. The assay used (FPN activity assay) measures a decrease in fluorescence of the receptor.
The cDNA encoding the human ferroportin (SLC40A1) was cloned from a cDNA clone from Origene (NM_014585). The DNA encoding the ferroportin was amplified by PCR using primers also encoding terminal restriction sites for subcloning, but without the termination codon. The ferroportin receptor was subcloned into a mammalian GFP expression vector containing a neomycin (G418) resistance marker in such that the reading frame of the ferroportin was fused in frame with the GFP protein. The fidelity of the DNA encoding the protein was confirmed by DNA sequencing. HEK293 cells were used for transfection of the ferroportin-GFP receptor expression plasmid. The cells were grown according to standard protocol in growth medium and transfected with the plasmids using Lipofectamine (manufacturer's protocol, Invitrogen). […] The cells were propagated and frozen in aliquots.
Compound was added to desired final concentration for at least 18 hours in the incubator. […] Compound was added to desired final concentration for at least 18 hours but no more than 24 hours in the incubator.

The target in assay [2] is T2, human ferroportin (SLC40A1) fused in frame with the GFP protein, stably expressed in HEK293 cells (human) (UniProt Q9NP59).
T2 sequence (looked up): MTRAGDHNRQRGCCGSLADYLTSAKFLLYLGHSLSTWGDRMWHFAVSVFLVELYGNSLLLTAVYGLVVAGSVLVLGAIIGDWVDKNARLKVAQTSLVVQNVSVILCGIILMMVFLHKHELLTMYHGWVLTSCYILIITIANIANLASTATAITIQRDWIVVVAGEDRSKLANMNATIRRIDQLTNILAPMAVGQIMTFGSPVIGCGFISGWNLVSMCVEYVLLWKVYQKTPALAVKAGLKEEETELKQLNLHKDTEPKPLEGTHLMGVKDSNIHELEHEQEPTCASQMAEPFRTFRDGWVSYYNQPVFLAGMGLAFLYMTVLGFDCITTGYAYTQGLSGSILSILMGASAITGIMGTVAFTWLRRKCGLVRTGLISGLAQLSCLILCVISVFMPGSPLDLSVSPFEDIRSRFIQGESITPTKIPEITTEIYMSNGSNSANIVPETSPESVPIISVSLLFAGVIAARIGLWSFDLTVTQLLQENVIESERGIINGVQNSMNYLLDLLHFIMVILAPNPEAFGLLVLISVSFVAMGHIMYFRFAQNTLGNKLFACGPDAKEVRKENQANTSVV
The assay is described as follows: cell-based or functional assay.

Bounds are passed on as bounds.

A word on the EC50: it is the concentration that produces a half-maximal response. `CC[C@@H](C)[C@@H](NC(=O)[C@H](N)Cc1ccccc1)C(=O)N[C@H](CS)C(=O)N[C@@H](C(=O)N1CCC[C@@H]1C(=O)N[C@H](Cc1ccccc1)C(=O)N[C@H](Cc1c[nH]cn1)C(=O)N[C@@H](C(=O)N[C@H](CC(=O)O)C(N)=O)[C@H](C)O)[C@H](C)CC` [RI-Mini Hepcidin, Hy-DPhe-DIle-DCys-DIle-DPro-DPhe-DHis-DThr-DAsp-NH2]: the EC50 in assay [1] is above 10 µM.

“RI-Mini Hepcidin, Hy-DPhe-DIle-DCys-DIle-DPro-DPhe-DHis-DThr-DAsp-NH2 (peptide)” registered a Potency EC50 (nM) in assay [2] above 10000 nM.

H-DTHFPICIF-NH2 (peptide, from a related filing) [Mini-Hepcidin 1-9, Hy-…-NH2]: in assay [2], the Potency EC50 is 712 nM.
